In patent EP0621339B1 (TAKARA SHUZO CO. LTD., dated 2001):

Experiments:
Experiment in all cases: cell-based or functional assay
[1] = biological target: HA molecule (haemagglutinin) of A/Adachi/2/57 (H2N2) (influenza A virus, H2N2 subtype, strain A/Adachi/2/57)
[2] = biological target: HA molecule (haemagglutinin) of A/Bangkok/10/83 (H1N1) (influenza A virus, H1N1 subtype, strain A/Bangkok/10/83)
[3] = biological target: HA molecule (haemagglutinin) of A/Fukuoka/C29/85 (H3N2) (influenza A virus, H3N2 subtype, strain A/Fukuoka/C29/85)
[4] = biological target: HA molecule (haemagglutinin) of A/Ibaraki/1/90 (H3N2) (influenza A virus, H3N2 subtype, strain A/Ibaraki/1/90)
[5] = biological target: HA molecule (haemagglutinin) of A/Izumi/5/65 (H2N2) (influenza A virus, H2N2 subtype, strain A/Izumi/5/65)
[6] = biological target: HA molecule (haemagglutinin) of A/Kaizuka/2/65 (H2N2) (influenza A virus, H2N2 subtype, strain A/Kaizuka/2/65)
[7] = biological target: HA molecule (haemagglutinin) of A/Kitakyushu/159/93 (H3N2) (influenza A virus, H3N2 subtype, strain A/Kitakyushu/159/93)
[8] = biological target: HA molecule (haemagglutinin) of A/Kumamoto/1/65 (H2N2) (influenza A virus, H2N2 subtype, strain A/Kumamoto/1/65)
[9] = biological target: HA molecule (haemagglutinin) of A/Osaka/930/88 (H1N1) (influenza A virus, H1N1 subtype, strain A/Osaka/930/88)
[10] = biological target: HA molecule (haemagglutinin) of A/Sichuan/2/87 (H3N2) (influenza A virus, H3N2 subtype, strain A/Sichuan/2/87)
[11] = biological target: HA molecule (haemagglutinin) of A/Suita/1/90 (H3N2) (influenza A virus, H3N2 subtype, strain A/Suita/1/90)
[12] = biological target: HA molecule (haemagglutinin) of A/Yamagata/120/86 (H1N1) (influenza A virus, H1N1 subtype, strain A/Yamagata/120/86)
[13] = biological target: HA molecule (haemagglutinin) of A1/FM/1/47 (H1N1) (influenza A virus, H1N1 subtype, strain A1/FM/1/47)
[14] = biological target: HA molecule (haemagglutinin) of A2/Aichi/2/68 (H3N2) (influenza A virus, H3N2 subtype, strain A2/Aichi/2/68)
[15] = biological target: HA molecule (haemagglutinin) of influenza B virus B/Nagasaki/1/87 (influenza B virus, strain B/Nagasaki/1/87)
[16] = biological target: HA molecule (haemagglutinin) of A/PR/8/34 (H1N1) (influenza A virus, H1N1 subtype, strain …, UniProt P03452 18-565)
Sequence of HA molecule (haemagglutinin) of A/PR/8/34 (H1N1) (P03452 18-565): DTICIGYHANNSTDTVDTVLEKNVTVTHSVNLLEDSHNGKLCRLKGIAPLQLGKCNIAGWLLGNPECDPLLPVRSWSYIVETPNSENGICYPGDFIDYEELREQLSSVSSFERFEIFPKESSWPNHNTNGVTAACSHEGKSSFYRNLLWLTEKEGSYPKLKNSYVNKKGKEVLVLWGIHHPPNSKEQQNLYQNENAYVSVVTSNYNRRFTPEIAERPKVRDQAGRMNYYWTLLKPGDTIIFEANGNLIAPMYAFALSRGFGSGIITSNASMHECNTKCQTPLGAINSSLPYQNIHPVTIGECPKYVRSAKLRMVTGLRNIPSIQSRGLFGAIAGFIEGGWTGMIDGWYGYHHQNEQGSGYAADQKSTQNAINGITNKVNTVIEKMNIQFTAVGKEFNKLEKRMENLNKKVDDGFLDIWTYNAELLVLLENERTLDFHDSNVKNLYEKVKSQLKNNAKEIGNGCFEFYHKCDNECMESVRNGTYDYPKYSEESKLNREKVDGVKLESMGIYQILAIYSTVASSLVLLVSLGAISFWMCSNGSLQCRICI

Molecule | HI (hemagglutination inhibition titer) (fold dilution of the ascites fluid) [1] | HI (hemagglutination inhibition titer) (fold dilution of the ascites fluid) [2] | HI (hemagglutination inhibition titer) (fold dilution of the ascites fluid) [3] | HI (hemagglutination inhibition titer) (fold dilution of the ascites fluid) [4] | HI (hemagglutination inhibition titer) (fold dilution of the ascites fluid) [5] | HI (hemagglutination inhibition titer) (fold dilution of the ascites fluid) [6] | HI (hemagglutination inhibition titer) (fold dilution of the ascites fluid) [7] | HI (hemagglutination inhibition titer) (fold dilution of the ascites fluid) [8] | HI (hemagglutination inhibition titer) (fold dilution of the ascites fluid) [9] | HI (hemagglutination inhibition titer) (fold dilution of the ascites fluid) [10] | HI (hemagglutination inhibition titer) (fold dilution of the ascites fluid) [11] | HI (hemagglutination inhibition titer) (fold dilution of the ascites fluid) [12] | HI (hemagglutination inhibition titer) (fold dilution of the ascites fluid) [13] | HI (hemagglutination inhibition titer) (fold dilution of the ascites fluid) [14] | HI (hemagglutination inhibition titer) (fold dilution of the ascites fluid) [15] | HI (hemagglutination inhibition titer) [16]
monoclonal antibody C179 | < 32 | < 32 | < 32 | < 32 | < 32 | < 32 | < 32 | < 32 | < 32 | < 32 | < 32 | < 32 | < 32 | < 32 | < 32 | 
monoclonal antibody C179 (antibody) chain 1: EVKLVESGGGLVQPGGSLRLSCGTSGFTLTDDYMTWVRQPPGKALEWLGFIRDRANGYTTEYSASVKGRFTISRDNSQSIVYLQMNTLRVEDSATYYCARPKGYFPYAMDYWGQGT chain 2: DIQMTQSPASQSASLGESVTITCLASQTIGTWLAWYQQKPGKSPQLLIYAATSLADGVPSRFSGSGSGTKFSFKISSLQAEDFVSYYCQQLYSTPW |  |  |  |  |  |  |  |  |  |  |  |  |  |  |  | < 32 fold dilution of the ascites fluid
